Assay results: patent US20240295562

Assays:
[1] = molecular target: T1, WKELDEESILKQK
T1 chain: WKELDEESILKQK

[2] = molecular target: T2, KKLDEESILKQK
T2 chain: KKLDEESILKQK

[3] = molecular target: T3, IAKLDEESILKQK
T3 chain: IAKLDEESILKQK

[4] = molecular target: T4, QP514 (DQQRLIFAYPDDD)
T4 chain: DQQRLIFAYPDDD

[5] = molecular target: T5, RRLDEESILKQK
T5 chain: RRLDEESILKQK

[6] = molecular target: T6, QP47 peptide (FAAAYPDDD)
T6 chain: FAAAYPDDD

B1: AP37 (protein)
chain: MDLKGGESMVDWKLMQEIIEAPGVSGYEHLGIRDIVVDVLKEVADEVKVDKLGNVIAHFKGSSPRIMVAAHMDKIGVMVNHIDKDGYLHIVPIGGVLPETLVAQRIRFFTEKGERYGVVGVLPPHLRRGQEDKGSKIDWDQIVVDVGASSKEEAEEMGFRVGTVGEFAPNFTRLNEHRFATPYLDDRICLYAMIEAARQLGDHEADIYIVGSVQEEVGLRGARVASYAINPEVGIAMDVTFAKQPHDKGKIVPELGKGPVMDVGPNINPKLRAFADEVAKKYEIPLQVEPSPRPTGTDANMQINREGVATAVLSIPIRYMHSQVELADARDVDNTIKLAKALLEELKPMDFTPGHHHHHHHHHH
With B1 the Percent N-Terminal Residue Cut (HPLC assay), AP37 after conditioning, 1 µM [1] was 97%, the Percent N-Terminal Residue Cut (HPLC assay), AP37 after conditioning, 10 µM [1] was 99% and the Percent N-Terminal Residue Cut (HPLC assay), AP37 before conditioning, 1 µM [1] was 18%. It also gave a Percent N-Terminal Residue Cut (HPLC assay), AP37 before conditioning, 10 µM [1] of 55%, a Percent N-Terminal Residue Cut (HPLC assay), AP37 after conditioning, 1 µM [2] of 61% and a Percent N-Terminal Residue Cut (HPLC assay), AP37 after conditioning, 10 µM [2] of 100%. It also gave a Percent N-Terminal Residue Cut (HPLC assay), AP37 before conditioning, 1 µM [2] of 11%, a Percent N-Terminal Residue Cut (HPLC assay), AP37 before conditioning, 10 µM [2] of 71% and a Percent N-Terminal Residue Cut (HPLC assay), AP37 after conditioning, 1 µM [3] of 74%. The Percent N-Terminal Residue Cut (HPLC assay), AP37 after conditioning, 10 µM [3] was 100%, the Percent N-Terminal Residue Cut (HPLC assay), AP37 before conditioning, 1 µM [3] was 13% and the Percent N-Terminal Residue Cut (HPLC assay), AP37 before conditioning, 10 µM [3] was 57%. The “cleavage of arginine in protein sequencing assay, AP37 (40 µM) alone” value [4] was “AP37 shows better efficiency cleaving arginine than PfuTET when alone”, the Percent N-Terminal Residue Cut (HPLC assay), AP37 after conditioning, 1 µM [5] was 70% and the Percent N-Terminal Residue Cut (HPLC assay), AP37 after conditioning, 10 µM [5] was 100%. The Percent N-Terminal Residue Cut (HPLC assay), AP37 before conditioning, 1 µM [5] was 8% and the Percent N-Terminal Residue Cut (HPLC assay), AP37 before conditioning, 10 µM [5] was 26%.

B2: Pyrococcus horikoshii TET II Aminopeptidase (hTET II) (protein)
chain: MEVRNMVDYELLKKVVEAPGVSGYEFLGIRDVVIEEIKDYVDEVKVDKLGNVIAHKKGEGPKVMIAAHMDQIGLMVTHIEKNGFLRVAPIGGVDPKTLIAQRFKVWIDKGKFIYGVGASVPPHIQKPEDRKKAPDWDQIFIDIGAESKEEAEDMGVKIGTVITWDGRLERLGKHRFVSIAFDDRIAVYTILEVAKQLKDAKADVYFVATVQEEVGLRGARTSAFGIEPDYGFAIDVTIAADIPGTPEHKQVTHLGKGTAIKIMDRSVICHPTIVRWLEELAKKHEIPYQLEILLGGGTDAGAIHLTKAGVPTGALSVPARYIHSNTEVVDERDVDATVELMTKALENIHELKI
In the case of B2, the “RSC (rapid sequential cleavage) population, protein sequencing assay with hTETII (1 µM)” value [6] is reported as “RSC population is ~40%”.

B3: AP30 (protein)
chain: MEVRNMVDYELLKKVVEAPGVSGYEFLGIRDVVIEEIKDYVDEVKVDKLGNVIAHKKGEGPKVMIAAHMDQIGLMVTHIEKNGFLRVAPIGGVDPKTLIAQRFKVWIDKGKFIYGVGASVPPHIQKPEDRKKAPDWDQIFIDIGAESKEEAEDMGVKIGTVITWDGRLERLGKHRFVSIAFDDRIAVYTILEVAKQLKDAKADVYFVATVQEEVGLRGARTSAFGIEPDYGFAIDVTIAADIPGTPEHKQVTHLGKGTAIKIMDRSVICHPTIVRWLEELAKKHEIPYQLEILLGGGTDAGAIHLTKAGVPTGALSVPARYIHSNTEVVDERDVDATVELMTKALENIHELKIGGSHHHHHHHHHHGGGSGGGSGGGSGLNDFFEAQKIEWHEGGGSGGGSGGGSGLNDFFEAQKIEWHE
In the case of B3, the “RSC (rapid sequential cleavage) population, protein sequencing assay with AP30 (5 µM)” value [6] is reported as “The RSC population with AP30 was only ~25%”.
